Measured values from IntAct's records for PubMed 21203436.

B1: Protein MKS1 (Arabidopsis thaliana (Mouse-ear cress)), Q8LGD5 (parent)
chain: MDPSEYFAGGNPSDQQNQKRQLQICGPRPSPLSVHKDSHKIKKPPKHPAPPPNRDQPPPYIPREPVVIYAVSPKVVHATASEFMNVVQRLTGISSGVFLESGGGGDVSPAARLASTENASPRGGKEPAARDETVEINTAMEEAAEFGGYAPGILSPSPALLPTASTGIFSPMYHQGGMFSPAIPLGLFSPAGFMSPFRSPGFTSLVASPTFADFFSHIWDQD
partner: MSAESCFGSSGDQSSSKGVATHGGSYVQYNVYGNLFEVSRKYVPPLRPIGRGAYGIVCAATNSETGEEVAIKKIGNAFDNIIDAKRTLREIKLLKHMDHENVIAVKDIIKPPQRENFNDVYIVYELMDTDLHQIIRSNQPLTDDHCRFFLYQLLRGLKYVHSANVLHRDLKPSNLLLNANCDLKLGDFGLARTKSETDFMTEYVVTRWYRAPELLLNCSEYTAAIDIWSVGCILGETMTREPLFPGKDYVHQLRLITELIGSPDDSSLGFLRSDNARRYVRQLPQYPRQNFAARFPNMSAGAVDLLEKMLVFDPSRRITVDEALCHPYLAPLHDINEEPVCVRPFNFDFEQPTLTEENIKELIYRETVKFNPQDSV

Variants of: B1
Details: with mpk4_arath MPK4, Q39024

Row | Variant | effect of a mutation on the interaction
1 | MDPSEYFAGGNPSDQQNQARQLQICGPRPSPLSVHKDSHKIKKPPKHPAPPPNRDQPPPYIPREPVVIYAVSPKVVHATASEFMNVVQRLTGISSGVFLESGGGGDVSPAARLASTENASPRGGKEPAARDETVEINTAMEEAAEFGGYAPGILSPSPALLPTASTGIFSPMYHQGGMFSPAIPLGLFSPAGFMSPFRSPGFTSLVASPTFADFFSHIWDQD [K19A] | disrupting interaction
2 | MDPSEYFAGGNPSDQQNQKRQLQICGPAPSPLSVHKDSHKIKKPPKHPAPPPNRDQPPPYIPREPVVIYAVSPKVVHATASEFMNVVQRLTGISSGVFLESGGGGDVSPAARLASTENASPRGGKEPAARDETVEINTAMEEAAEFGGYAPGILSPSPALLPTASTGIFSPMYHQGGMFSPAIPLGLFSPAGFMSPFRSPGFTSLVASPTFADFFSHIWDQD [R28A] | disrupting interaction
3 | MDPSEYFAGGNPSDQQNQKRQLQICGPRASPLSVHKDSHKIKKPPKHPAPPPNRDQPPPYIPREPVVIYAVSPKVVHATASEFMNVVQRLTGISSGVFLESGGGGDVSPAARLASTENASPRGGKEPAARDETVEINTAMEEAAEFGGYAPGILSPSPALLPTASTGIFSPMYHQGGMFSPAIPLGLFSPAGFMSPFRSPGFTSLVASPTFADFFSHIWDQD [P29A] | disrupting interaction
4 | MDPSEYFAGGNPSDQQNQKRQLQICGPRPSPASVHKDSHKIKKPPKHPAPPPNRDQPPPYIPREPVVIYAVSPKVVHATASEFMNVVQRLTGISSGVFLESGGGGDVSPAARLASTENASPRGGKEPAARDETVEINTAMEEAAEFGGYAPGILSPSPALLPTASTGIFSPMYHQGGMFSPAIPLGLFSPAGFMSPFRSPGFTSLVASPTFADFFSHIWDQD [L32A] | disrupting interaction

Results, then the variant that gave them:

Row | effect of a mutation on the interaction | Variant
5 | disrupting interaction | MDPSEYFAGGNPSDQQNQKRQLQICGPRPSPLSVHKDSHAIKKPPKHPAPPPNRDQPPPYIPREPVVIYAVSPKVVHATASEFMNVVQRLTGISSGVFLESGGGGDVSPAARLASTENASPRGGKEPAARDETVEINTAMEEAAEFGGYAPGILSPSPALLPTASTGIFSPMYHQGGMFSPAIPLGLFSPAGFMSPFRSPGFTSLVASPTFADFFSHIWDQD [K40A]
6 | disrupting interaction | MDPSEYFAGGNPSDQQNQKRQLQICGPRPSPLSVHKDAHKIKKPPKHPAPPPNRDQPPPYIPREPVVIYAVSPKVVHATASEFMNVVQRLTGISSGVFLESGGGGDVSPAARLASTENASPRGGKEPAARDETVEINTAMEEAAEFGGYAPGILSPSPALLPTASTGIFSPMYHQGGMFSPAIPLGLFSPAGFMSPFRSPGFTSLVASPTFADFFSHIWDQD [S38A]
